Test system: MS2 coat protein
Experiment: apparent KD of MS2 coat protein; designed switch direction (-1 OFF switch, 1 ON switch): -1; higher = weaker reporter binding
Summary of the method: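 Designed RNA switches with common flanks were transcribed on Illumina chips by stalled E. coli RNA polymerase and titrated with SNAP-549-labelled MS2 coat protein, from 0.7 or 1.5 nM doubling to 3 µM, in Tris-HCl pH 7.5 buffer with KCl, MgCl2, BSA, DTT, tRNA and Tween-20. Steps lasted 0.8–1.5 h (lowest) to 10–20 min (highest). Titrations ran without input, with 200 uM small-molecule ligand, or with an oligonucleotide input. Normalised cluster fluorescence was curve-fitted, and apparent KD is the per-design median over clusters.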

[1] = input ligand: microRNA oligo, concentration not stated
[2] = Eterna round: R95, input ligand: FMN 200 uM
[3] = Eterna round: R95, input ligand: microRNA oligo, concentration not stated
[4] = Eterna round: R95, input ligand: none

ACUUACUGAGGAUAUACUUAGAUUUACAUGAGGAUCACCCAUGUUCCUCUAUGUAUAUAUGUAGAAGGCAGAAGUA [Mat - Exclusion 5 - JL Mod - D50] (Eterna round: R97, puzzle: Exclusion 5)
apparent KD of MS2 coat protein (input ligand: FMN 200 uM): 252 nM | apparent KD of MS2 coat protein (input ligand: none): 38 nM

UUAGCUCAAGUCAGGAUAUUAGAGGCUUGCCUAAAUAAGAAGGGACAUGAGGAUCACCCAUGUCUAUGCAUGUA [BmEX4 A.16] (Eterna round: R97, puzzle: Brourd's mod of Exclusion 4)
apparent KD of MS2 coat protein (input ligand: FMN 200 uM): 21.5 nM | apparent KD of MS2 coat protein (input ligand: none): 15.9 nM

CGUCUGUAAGGAUAUGGUAGCGUUUACAUGAGGAUCACCCAUGUUACAUGGGACUAGAGACUAGAAGGUACGAACG [EX5 #51] (Eterna round: R97, puzzle: Exclusion 5)
apparent KD of MS2 coat protein (input ligand: FMN 200 uM): 589 nM | apparent KD of MS2 coat protein (input ligand: none): 2520 nM

UUAAAUCAUGUAGGAUAUGCGUGGCGAAGCUAUGCAGAAGGACAUGAGGAUCACCCAUGUGCUUCCGUCUGCGUACAGACGGUA [JL ENG1 1.14] (Eterna round: R96, puzzle: Exclusion NG 1)
apparent KD of MS2 coat protein (input ligand: FMN 200 uM): 258 nM | apparent KD of MS2 coat protein [1]: 79.2 nM | apparent KD of MS2 coat protein (input ligand: none): 91.2 nM

UGAGUGCUGCGAGGAUAUACAUGAGGAUCACCCAUGUAAACCUGUGAGGCUUUGCCUCACAGGAUGUAGAAGGCGCAGUACUCU [JL ENG2 1.16] (Eterna round: R96, puzzle: Exclusion NG 2)
apparent KD of MS2 coat protein (input ligand: FMN 200 uM): 15.5 nM | apparent KD of MS2 coat protein [1]: 9.94 nM | apparent KD of MS2 coat protein (input ligand: none): 13.2 nM

AACUGGACAGGAUAUGUACUUGAGCACUUGAGGAUCACCCAAGUCAUCAAGUACUCAGGCACAGAAGGGUUUAUUU [jl-ex5.4.69 ViennaUCT mod] (Eterna round: R97, puzzle: Exclusion 5)
apparent KD of MS2 coat protein (input ligand: FMN 200 uM): 311 nM | apparent KD of MS2 coat protein (input ligand: none): 200 nM

CUAGCGAUUGUAGGAUAUCGGACUGUUUCAGUCUGAGAAGGACAUGAGGAUCACCCAUGUGAUGCUACGUGAGUAGCACGCUAG [JL ENG1 3.85] (Eterna round: R96, puzzle: Exclusion NG 1)
apparent KD of MS2 coat protein (input ligand: FMN 200 uM): 76.9 nM | apparent KD of MS2 coat protein [1]: 20 nM | apparent KD of MS2 coat protein (input ligand: none): 30.5 nM

AAGAAACGAGGAUAUACAGUUGAGUGAGGGAGGGUAGUGUUACAUGAGGAUCACCCAUGUAGAAGGCGUGAGAG [JR_Exclu2_Sub090] (puzzle: Exclusion 2)
apparent KD of MS2 coat protein [2]: 24.8 nM | apparent KD of MS2 coat protein [3]: 19.3 nM | apparent KD of MS2 coat protein [4]: 25 nM

CCAGCAAGUUCAGCUCGUCACAUGAGGAUCACCCAUGUUAAGUAAUCCUUCUCUUCUAGGUAGCGCCGGAGAGAGGG [Eternabot (Original) Solution 16] (Eterna round: R97, puzzle: Sensor, turn-off variant 1)
apparent KD of MS2 coat protein (input ligand: FMN 200 uM): 32.6 nM | apparent KD of MS2 coat protein (input ligand: none): 43.3 nM

CUUUUGUGAGGAUAUCAGUAGUAAUACAAUAGUAUUACUACUGAGAAGGCACAUGAGGAUCACCCAUGUUUCUC [Ex4 344 Omei mod 3] (puzzle: Exclusion 4)
apparent KD of MS2 coat protein [3]: 39.8 nM

CCGCUGUGAGGAUAUUAGUAGUAGUCAGAAUAGACUAUUACUGAGAAGGCACAUGAGGAUCACCCAUGUAGCGG [Eli x4 4.25] (Eterna round: R97, puzzle: Exclusion 4)
apparent KD of MS2 coat protein (input ligand: FMN 200 uM): 24.8 nM | apparent KD of MS2 coat protein (input ligand: none): 28.9 nM

GAUCCGUUAGGAUAUGCGGGUGUCACCAGAGUGAUAGCCUCGCAGAAGGAACAUGAGGAUCACCCAUGUAGCAA [Eternabot (L1) Solution 92] (Eterna round: R97, puzzle: Exclusion 4)
apparent KD of MS2 coat protein (input ligand: FMN 200 uM): 111 nM | apparent KD of MS2 coat protein (input ligand: none): 38.6 nM

GGCCGGCGAGGAUAUACCGAAUGAAGGUGAUAUGAAUGAUUACAUGAGGAUCACCCAUGUAGAAGGCGCCGGCC [Default title] (Eterna round: R97, puzzle: Exclusion 2)
apparent KD of MS2 coat protein (input ligand: FMN 200 uM): 327 nM | apparent KD of MS2 coat protein (input ligand: none): 146 nM

UGUGUGUCAGGAUAUAGUUCGAGUUCGGAAAUGAGCUUGAGCUAGAAGGGACAUGAGGAUCACCCAUGUGCACG [-26.3, -25.3 kcal, A 27%, 1-(ca)1] (Eterna round: R97, puzzle: Exclusion 4)
apparent KD of MS2 coat protein (input ligand: FMN 200 uM): 148 nM | apparent KD of MS2 coat protein (input ligand: none): 83.6 nM

GUUAUUUAUGUAGGAUAUGCAAGGCGAACCUAAGCAGAAGGACAUGAGGAUCACCCAUGUAUUGCGGUCUGCGUUCAGAUCGCU [salish99_ExNG1_r4_013] (Eterna round: R96, puzzle: Exclusion NG 1)
apparent KD of MS2 coat protein (input ligand: FMN 200 uM): 86.2 nM | apparent KD of MS2 coat protein [1]: 15 nM | apparent KD of MS2 coat protein (input ligand: none): 22 nM

CCGACAAGCUGCUAAGGAUACAUGAGGAUCACCCAUGUCGGUAUCCGAGAGGUAUUGAAGUCAACCAUCGCUCGUCU [Eternabot (Original) Solution 49] (Eterna round: R97, puzzle: Sensor, turn-off variant 1)
apparent KD of MS2 coat protein (input ligand: FMN 200 uM): 167 nM | apparent KD of MS2 coat protein (input ligand: none): 188 nM

GUAAAGGUAGGAUAUACGAAGAAAAAGGGUAGAAGAAAAACACAUGAGGAUCACCCAUGUAGAAGGACCAAAUG [Mat - Exclusion 2 - Mod of my Tesla design - D3] (puzzle: Exclusion 2)
apparent KD of MS2 coat protein [2]: 77.6 nM | apparent KD of MS2 coat protein [3]: 28.6 nM | apparent KD of MS2 coat protein [4]: 34 nM

AGCGAUUCAGGAUAUACGGGUGGGCUGGAUCUUGGAGGAGUACAUGAGGAUCACCCAUGUAGAAGGGAAUUUUC [Eternabot (L2) Solution 35] (Eterna round: R97, puzzle: Exclusion 2)
apparent KD of MS2 coat protein (input ligand: FMN 200 uM): 95.5 nM | apparent KD of MS2 coat protein (input ligand: none): 40.2 nM

AGGUGCUUCUGGAGACAUGAGGAUCACCCAUGUUGAGUUAGCGAGGAUAUCGGUAAUGCAUGUGAUGAGAAGGCGCAAACCGAU [Ex NG3 #48] (Eterna round: R96, puzzle: Exclusion NG 3)
apparent KD of MS2 coat protein (input ligand: FMN 200 uM): 36.8 nM | apparent KD of MS2 coat protein [1]: 40.3 nM | apparent KD of MS2 coat protein (input ligand: none): 46.1 nM

AAUACAAGCAAGAUCCUAAACAUGAGGAUCACCCAUGUGCUCGUCUUGUAAAGUACUAUCACGAAAGUGAUAGUACA [Sensor 3, v1 - 62] (puzzle: Sensor v3, turn-off variant 1)
apparent KD of MS2 coat protein [2]: 29.4 nM | apparent KD of MS2 coat protein [3]: 103 nM | apparent KD of MS2 coat protein [4]: 32.7 nM

ACCUUACAUGAGGAUCACCCAUGUCAGGAUAUCUCGGACAGCUGAAAACCAGCCGUCCAGAGAAGGGACGAGGA [Tiaza] (puzzle: Exclusion 1)
apparent KD of MS2 coat protein [3]: 12.8 nM

CCUCCGGUAUAGGAUAUUUAUGAGCUCAGUUCUAAAGAAGGGUAUACAUGAGGAUCACCCAUGUGUGAAGUUAU [Eternabot (L2) Solution 20] (Eterna round: R97, puzzle: Exclusion 6)
apparent KD of MS2 coat protein (input ligand: FMN 200 uM): 52.5 nM | apparent KD of MS2 coat protein (input ligand: none): 49.9 nM

UUCCUACUUGAGGAUCACCCAAGUCAGGAUAUCCAUAGCCGACACUCUUUUCGGAACGGGAGAAGGGACUUGGU [Tiisatbi] (Eterna round: R97, puzzle: Exclusion 1)
apparent KD of MS2 coat protein (input ligand: FMN 200 uM): 97.5 nM | apparent KD of MS2 coat protein (input ligand: none): 37.2 nM

GAGGCAUGCCGAGGUCCACACAUGAGGAUCACCCAUGUAAUGACAGGCUUUUUACUCGUUUUACCGCUAUCGCGUUC [Gedied] (puzzle: Sensor v3, turn-off variant 1)
apparent KD of MS2 coat protein [2]: 14.9 nM | apparent KD of MS2 coat protein [3]: 21.7 nM | apparent KD of MS2 coat protein [4]: 12.7 nM

CCAUGUUAGCAGGAUAUGCAAUAAAUCUUUUAAGCAGAAGGGCUUACAUGAGGAUCACCCAUGUAUAAUUUCAA [JR_E6_Sub080] (puzzle: Exclusion 6)
apparent KD of MS2 coat protein [3]: 42.6 nM

ACAUGAGGAUCACCCAUGUCUGGCUGGUCUGUUCCGGCUGUCGAGGAUAUAGUCCGGUGUUCGCGCUAGAAGGUGAGGGCUGGA [Aenatbe mod 44] (Eterna round: R96, puzzle: Exclusion NG 3)
apparent KD of MS2 coat protein (input ligand: FMN 200 uM): 153 nM | apparent KD of MS2 coat protein [1]: 68.6 nM | apparent KD of MS2 coat protein (input ligand: none): 87.4 nM

CUGGUGUGAGGAUAUCAGGGCACGCCCAAGGGCGUACCAAAUGAGAAGGCACAUGAGGAUCACCCAUGUGGGAC [Lasoena] (puzzle: Exclusion 4)
apparent KD of MS2 coat protein [3]: 32 nM

CAGUACUGAGGAUAUACAUGAGGAUCACCCAUGUGCUUCAGCUAGGAUACUAGCAUUAGUAGAAGGCAGUACUG [Fiskers Ex 3 828 mod 13] (Eterna round: R96, puzzle: Exclusion 3)
apparent KD of MS2 coat protein (input ligand: FMN 200 uM): 81 nM | apparent KD of MS2 coat protein [1]: 10.8 nM | apparent KD of MS2 coat protein (input ligand: none): 13.9 nM

GGUGCCCGACAAGGAUAUAAGAUACAGAAAACCUUAGAAGGUGUCACAUGAGGAUCACCCAUGUGGUCCGGCACCAAUAACUCC [Inedraor] (Eterna round: R96, puzzle: Exclusion NG 1)
apparent KD of MS2 coat protein (input ligand: FMN 200 uM): 58.9 nM | apparent KD of MS2 coat protein [1]: 18.1 nM | apparent KD of MS2 coat protein (input ligand: none): 41.9 nM

AAAUCGGAGGAGGAUAUUGUACAGGAAACGGUGCGAGAAGGUUUCACAUGAGGAUCACCCAUGUCAAAUAGCGA [EX6 #57] (Eterna round: R97, puzzle: Exclusion 6)
apparent KD of MS2 coat protein (input ligand: FMN 200 uM): 21.3 nM | apparent KD of MS2 coat protein (input ligand: none): 21.2 nM

GCUGGUCGAGGAUAUGCAUUCGUGCUUCGGCACGUAAGGUCACAUGAGGAUCACCCAUGUAGAAGGCGACCAGC [E2/6-A1] (Eterna round: R97, puzzle: Exclusion 2)
apparent KD of MS2 coat protein (input ligand: FMN 200 uM): 30.2 nM | apparent KD of MS2 coat protein (input ligand: none): 17.5 nM

CUUUUGUGAGGAUAUUAGUUGUAAAUAAAUAAAAUUACUACUGAGAAGGCACAUGAGGAUCACCCAUGUUCCUC [salish99_ex4_r3_049] (puzzle: Exclusion 4)
apparent KD of MS2 coat protein [3]: 33.2 nM

UAUACACAUGAGGAUCACCCAUGUGAGGAUAUGUACAACAACCCGACGGUGUUGUUGUACAGAAGGCACAAAUA [JR_Exclusion1_Sub027] (puzzle: Exclusion 1)
apparent KD of MS2 coat protein [3]: 78.9 nM

GCUGGUCAAGGAUAUAUAUGACGUGCUUCGGCACGAAGGUCACAUGAGGAUCACCCAUGUAGAAGGUGACCAGC [E2/9-C1] (Eterna round: R97, puzzle: Exclusion 2)
apparent KD of MS2 coat protein (input ligand: FMN 200 uM): 304 nM | apparent KD of MS2 coat protein (input ligand: none): 39.7 nM
